# Laboratory results: the nanobody polyreactivity screen of Harvey et al. (2022)
# Experiment: yeast display, Sf9 membrane polyspecificity reagent, FACS + sequencing; frameworks hold sequencing errors
# Outline: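 Nanobodies from a synthetic yeast display library (Saccharomyces cerevisiae BJ5465), induced 36–48 hours with galactose, were stained 1 hour at 4 °C with 10% biotinylated, detergent-solubilized Sf9 membrane reagent, enriched on streptavidin microbeads, then FACS-sorted. Anti-HA (expression) and streptavidin (reagent binding) fluorescence set low and high (top ~1%) gates. Polyreactivity labels come from the gate of origin. Genes were colony-PCR amplified, MiSeq 2 × 250 sequenced and filtered by CDR length.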
row,Sequence,polyreactivity (PSR sort gate)
1,QVQLVESGGGLVQAGGSLRLSCAASGRISVRNTMGWYRQAPGKERELVARISSTGGSTYYADSVKGRFTISRDNAKNTVYLQMNSLKPEDTAVYYCNAKYYTRYPYLGKGDYWGQGTQVTVSS,high polyreactivity
2,QVQLVESGGGLVQAGGSLRLSCAASGRISVTYAMGWYRQAPGKERELVAAINTSGGTTYYADSVKGRFTISRDNAKNTVYLQMNSLKPEDTAVYYCNAVFYGGVGDNDYWGQGTQVTVSS,high polyreactivity
3,QVQLVESGGGLVQAGGSLRLSCAASGRISWGYAMGWYRPAPGKERELVAVINFNGGRTYYADSVKGRFTISRDNAKNTVYLQMNSLKPEDTAVYYCAADSGYEYDYWGQGTQVTVSS,low polyreactivity
4,QVQLVESGGGLVQAGGSLRLSCAASGRISYLYTMGWYRQAPGKERELVAAIRWRDGSTYYADSVKGRFTISRDNAKNTVYLQMNSLKPEDTAVYYCASTPVGFYWYDYWGQGTQVTVSS,low polyreactivity
5,QVQLVESGGGLVQAGGSLRLSCAASGRISYSYAMGWYRQAPGKERELVAAISYSGGTTYYADSVKGRFTISRDNAKNTVYLQMNSLKPEDTAVYYCAVDGYDTYGFNGYYIRSGYWGQGTQVTVSS,low polyreactivity
6,QVQLVESGGGLVQAGGSLRLSCAASGRITYYAMGWYRQAPGKERELVAAITWSGGRTYYADSVKGRFTISRDNAKNTVYLQMNSLKPEDTAVYYCAKTRIYSKHWTEPYFYRVDSWGQGTQVTVSS,high polyreactivity
7,QVQLVESGGGLVQAGGSLRLSCAASGRIVGRYAMAWYRQAPGKERELVAAISSGTSTNYADSVKGRFTISRDNAKNTVYLQMNSLKPEDTAVYYCAVVLYRHWWYDYWGKGTQVTVSS,high polyreactivity
8,QVQLVESGGGLVQAGGSLRLSCAASGRIVSHYAMGWYRQAPGKERELVAAISRSGSTYYADSVKGRFTISRDNAKNTVYLQMNSLKPEDTAVYYCATRLYTVGPYGYWGQGTQVTVSS,low polyreactivity
9,QVQLVESGGGLVQAGGSLRLSCAASGRIVYSNTMGWYRQAPGKERELVARIDTGGGSTYADSVKGRFTISRDNAKNTVYLQMNSLKPEDTAVYYCNKKGRWRSWGSTSLVSMDYWGQGTQVTVSS,low polyreactivity
10,QVQLVESGGGLVQAGGSLRLSCAASGRIVYYNVMGWYRQAPGKEREFVAAISTRTGSTYYADSVKGRFTISRDNAKNSVYLQMNRLKPEDTAVYYCAAPYRAYSYDYWGQGTQVTVSS,high polyreactivity
11,QVQLVESGGGLVQAGGSLRLSCAASGRIWVNALGWYRQAPGKEREFVAAISTSSASTYYADSVKGRFTISRDNAKNTVYLQMNSLKPEDTAVYYCASRYLGKKYYWFKTMDYWGQGTQVTVSS,high polyreactivity
12,QVQLVESGGGLVQAGGSLRLSCAASGRIYGNAMGWYRQAPGKERELVAAISWSGGSTYYADSVKGRFTISRDNAKNTVYLQMNSLKPEDTAVYYCAATYPQGKYTYGRSYDYWGQGTQVTVSS,high polyreactivity
13,QVQLVESGGGLVQAGGSLRLSCAASGRIYGVYVMGWYRQAPGKERELVAAISWSGSHTYYADSVKGRFTISRDNAKNTVYLQMNSLKPEDTAVYYCKADSYPDYTGPGLDWYDYWGQGTQVTVSS,low polyreactivity
14,QVQLVESGGGLVQAGGSLRLSCAASGRIYGYAMGWYRQAPGKEREFVAVISRRGSSTYYADSVKGRFTISRDNAKNTVYLQMNSLKPEDTAVYYCAAGKFYYSIGPGYDYWGQGTQVTVSS,high polyreactivity
15,QVQLVESGGGLVQAGGSLRLSCAASGRIYLYAMGWYRQAPRKERELVASISYSGGSTYYADSVKGRFTISRDNAKNTVYLQMNSLKPEDTAVYYCATRRAGSCPPYGYWGQGSQVTVSS,high polyreactivity
16,QVQLVESGGGLVQAGGSLRLSCAASGRIYNRNAMGWYRQAPGKERDLVAAITYRGGSTYYADSVKGRFTISRDNAKNTVCLQMNSLKPEDTAVYYCAKDVKQWSVSASYRFGYWGQGTQVTVSS,high polyreactivity
17,QVQLVESGGGLVQAGGSLRLSCAASGRIYPYAMGWYRQAPGKERELVAAITSRGGTTYYADSVKGRFTISRDNAKNTVYLQMNSLKPEDSAVYYCAADQHIRVSWYLQMYYWGQGTQVTVSS,low polyreactivity
18,QVQLVESGGGLVQAGGSLRLSCAASGRIYRYAMGWYIQAPGKERELVASISYSGGSTYYADSVKGRFTISRDNAKNTVYLQMNSLKPEDTAVYYCAARTRHVHYGYWGQGTQVTVSS,high polyreactivity
19,QVQLVESGGGLVQAGGSLRLSCAASGRIYRYVMGWYRQAPGKERELVATITGRGGSTYYADSVKGRFTISRDNAKHTVYLQMNILKPEDTAVYYCAAAGRGSWTTYRFDYWGQGTQVTVSS,high polyreactivity
20,QVQLVESGGGLVQAGGSLRLSCAASGRIYSVYTMGWYRQAPGKERELVATISSGGRTNYADSVKGRFTISRDNAKNTVYLQMNSLKPEDTAVYYCAADWVYPPGLKDSVHFGEYDYWGQGTQVTVSS,low polyreactivity
21,QVQLVESGGGLVQAGGSLRLSCAASGRIYSWYAMGWYRQAPGKERELVAVISRGVSTYYADSVKGRFTISRDNAKNTVYLQMNSLKPEDTAVYYCAAYSGGRYYYWGQGTQVTVSS,low polyreactivity
22,QVQLVESGGGLVQAGGSLRLSCAASGRIYTYYAMGWYRQAPGKERELVAAISSGGSTYYADSVKGRFTISRDNAKNTVYLQMNSLKPEDTAVYYCNRVRRGVWRQDDYWGQGTQVTVSS,high polyreactivity

row,Sequence,polyreactivity (PSR sort gate)
1,QVQLVESGGGLVQAGGSLRLSCAASGRIYWYYAMAWSRQAPGKERELVAAINSGGNTNYADSVKGRFTISRDNAKNTVYLKMNSLKPEDTAVYYCAKGRWPLLLSKDLYYWGQGTQVTVSS,high polyreactivity
2,QVQLVESGGGLVQAGGSLRLSCAASGRLFNEYAMGWYRQAAGNVRALVAGITWSGGSTSYADSVKGRFTISRDYAKNTVYLQMIILKPEDTAVYYCAADVYRRLRRYRYFYWGQGTQVTVSS,low polyreactivity
3,QVQLVESGGGLVQAGGSLRLSCAASGRLFWYNAMGWYRQAPGKERELVARITRGTRTYYADSVKGRFTISRDNAKNTVSLQMNSLKPEDTAVYYCRLQLSYTPHYDYWGQGTQVTVSS,high polyreactivity
4,QVQLVESGGGLVQAGGSLRLSCAASGRLSDNVMGWYRQAPGKERELVAAISSSGGTTYYADSVKGRFTISRDNAKNTVYLQMNSLKPEDTAVYYCNARTRGKMDYWGQGTQVTVSS,high polyreactivity
5,QVQLVESGGGLVQAGGSLRLSCAASGRMFGRYVMGWYRQAAGKERELVASISTRGGRTYYADSVKGRFTISRDIAKNTVYLQMNSLKPEDTAVYYCAVVYPRFGAYDYWGQCTQVTVSS,high polyreactivity
6,QVQLVESGGGLVQAGGSLRLSCAASGRMFKINAMGCYRQAPGKERELVASIRTSSGSTYSADSVKGRFTLSRDNAKNTVYLQMNSLKPEDTAVYYCATQYRYYNHFVTPFTRYGYWGQGTQVTVSS,high polyreactivity
7,QVQLVESGGGLVQAGGSLRLSCAASGRNFAKYAMGWYRQAPGKERELVAAINSSGGSTYYADSVKGRFTISRDNAKNTVYLQMNSLKPEDTAVYYCAALGIGSYRRYSGYDYWGQGTQVTVSS,low polyreactivity
8,QVQLVESGGGLVQAGGSLRLSCAASGRNFAWYAMGWYRQAPGKEREFVAAITYRAARTYYADSVKGRFTISRDNAKNTVYLQMNSLKPEDTAVYYCNAVGFDQPRYYYWGQGTQVTVSS,high polyreactivity
9,QVQLVESGGGLVQAGGSLRLSCAASGRNFAYYAMGWYRQEPGKERELVAVISKSGGSTNYADSVKGRFTISRDNAKNTVYLQMNSLKPEDTAVYYCAKRAYDPEMYYWGQGTQVTVSS,low polyreactivity
10,QVQLVESGGGLVQAGGSLRLSCAASGRNFFRYAMGWYRQAPGKERELVATISRSGGTYADSVKGRFTISRDNAKNTVYLQMNSLKPEDTAVYYCNARTLYAYITRDYWGQGTQVTVSS,high polyreactivity
11,QVQLVESGGGLVQAGGSLRLSCAASGRNFFTYAMGWYRQAPGKERELVASITGSGGSTYYADSVKGRFTISRDNAKYTVYLQMNSLKPEDTAVYYCAAALFRRQLYRKFYYWGQGTQVTVSS,low polyreactivity
12,QVQLVESGGGLVQAGGSLRLSCAASGRNFGWYAMGWYRQATGKERELVAAITSGSRTSYADSVKGRFTISRDNAKNTVYLQMNSLKPEDTAVYYCARRSYGIYYRSADDSWGQGTQVTVSS,high polyreactivity
13,QVQLVESGGGLVQAGGSLRLSCAASGRNFHKYAMGWYRQAPGKERELVAAITGSGVRTYYADSVKGRFTISRDNAKNTVYLQMNSLKPEDTAVYYCNADSYYGNGDYWGQGTQVTVSS,high polyreactivity
14,QVQLVESGGGLVQAGGSLRLSCAASGRNFIVNAMGWYRQAHGKEREFVAAITSRGGITYYADSVKGRFTISRDNAKNTVYLQMNSLKPEDTAVYYCAAGYITWGSGNWVVTPYDYWGQGTQVTVSS,high polyreactivity
15,QVQLVESGGGLVQAGGSLRLSCAASGRNFNFNTIGWYRQAAGKEREFLAAITFRGVRTYYADSVKGRFTISRDNAKNTVYLQMISLKPEDTAVYYCATQARLYGGYDRYAGSYDYWGQGTQVTVSS,high polyreactivity
16,QVQLVESGGGLVQAGGSLRLSCAASGRNFPRYAMGWYRQAPGKERELVAAISWRGGSTRYADSVKGRFTISRDNEKNTVYLQMNSLKPEDTAVYYCAAEFWFFPGWAYEYWGQGTQVTVSS,high polyreactivity
17,QVQLVESGGGLVQAGGSLRLSCAASGRNFPTKAMGWYREAPGTERELVAAITRSGSTYYADSVKGRFTISRDNAKNTVYLQMNSLKPEDTAVYYCAAYAYIFLDWGGYPYYLYEYDDWGQGTQVTVSS,low polyreactivity
18,QVQLVESGGGLVQAGGSLRLSCAASGRNFRRYTMGWYRQAPGKERELVATISSGGSTYADSVKGRFTISRDNAKNTVYLQMNSVKPEDSAVYYCAAQTWGSGYGNIGRRRHDYWGQGTQVTVSS,high polyreactivity
19,QVQLVESGGGLVQAGGSLRLSCAASGRNFVYNAMGWYRQAPGKERELVAAITWGGGSTYYADSVKGRFTISRDKAKNTVYLQMNSLKPEDTAVYYCAADGVRKFPNSRYDYWGQGTQVTVSS,low polyreactivity
20,QVQLVESGGGLVQAGGSLRLSCAASGRNFWFNAMGWYRQAPGKVRELVAAISGGSTNYADSVKGRFTISRDNAKNHVYLQMNSLKPEDTAVYYCAARYLLRYNWGQGTQVTVSS,high polyreactivity
21,QVQLVESGGGLVQAGGSLRLSCAASGRNFYRNAMGWSRQAPGKERELVAAITGSGGITYYADSVKGRFTISRDNAKYTVYLQMNRLKPEDTGVYYCNARYYSHRYDYWGQGTQVTVSS,high polyreactivity
